The nature of series [1]: Serum hydrolysis of hK2 substrates. As to conditions: 50% fresh human serum in 50 mM Tris, 0.1 M NaCl, pH 7.8. The format is in vitro ADME. On the procedure: (§1) Hydrolyses of particular hK2 substrates were carried out at a hK2 concentrations of 1 μg/ml in 50 mM Tris buffer, with 0.1 M NaCl, at pH 7.8. Serum hydrolysis measurements were carried out in 50% fresh human serum in 50 mM Tris buffer, with 0.1 M NaCl, at pH 7.8. The single letter amino acid code was used to designate the peptide sequences used for Table 4. The units FU are arbitrary fluorescence units. The entries “U.D.” were for measurements of less than 0.01 FU/hour.

In the next series the target is T1, hK2 (Homo sapiens, UniProt P20151).
T1 construct: made in house
In words: Hydrolysis of hK2 substrates by hK2. Format: biochemical. As to conditions: hK2 1 μg/ml, 50 mM Tris, 0.1 M NaCl, pH 7.8. The procedure: as §1

Non-standard residues stand in square brackets, D forms with d. No end group written: not given here.

T1 sequence (P20151 25-261): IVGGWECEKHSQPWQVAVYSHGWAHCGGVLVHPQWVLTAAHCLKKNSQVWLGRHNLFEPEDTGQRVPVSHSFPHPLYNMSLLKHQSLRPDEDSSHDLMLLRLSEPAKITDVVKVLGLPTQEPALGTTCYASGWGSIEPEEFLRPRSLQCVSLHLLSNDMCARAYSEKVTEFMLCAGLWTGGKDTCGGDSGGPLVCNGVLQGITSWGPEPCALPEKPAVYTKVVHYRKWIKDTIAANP

Consider “SEQ ID NO: 116: hK2 substrate peptide, single letter sequence P6-P′1 (GGKARQL; listed as Homo sapiens)”, for which the “Serum Hydrolysis Rate” value in series [1] (Table 5) is on record as 0.13 FU/hr. In addition, the “hK2 Hydrolysis Rate” value with hK2 (Table 5) stood at 1021.9 FU/hr/m.
Take “SEQ ID NO: 111: hK2 substrate peptide, single letter sequence P6-P′1 (GGKARRS; listed as Homo sapiens)”: the “Serum Hydrolysis Rate” value in series [1] (Table 5) was “UD (The entries “U.D.” were for measurements of less than 0.01 FU/hour)”. In addition, in the series with hK2 (Table 5), the “hK2 Hydrolysis Rate” value is given as 1609.6 FU/hr/m.
With “SEQ ID NO: 96: hK2 substrate peptide, single letter sequence P6-P′1 (GGQKRRL; listed as Homo sapiens)”, the “Serum Hydrolysis Rate” value in series [1] (Table 5) was found to be 0.02 FU/hr. Further, the “hK2 Hydrolysis Rate” value with hK2 (Table 5) is 3267.4 FU/hr/m.
Consider “SEQ ID NO: 75: hK2 substrate peptide, single letter sequence P7-P′1 (GSYPSSRL; listed as Homo sapiens)”, for which the “Serum Hydrolysis Rate” value in series [1] (Table 4) is on record as 0.06 FU/hr. Also, the “hK2 Hydrolysis Rate” value with hK2 (Table 4) is recorded as 1456.18 FU/hr/m.
Take “SEQ ID NO: 103: hK2 substrate peptide, single letter sequence P7-P′1 (GAEQKRRL; listed as Homo sapiens)”: the “Serum Hydrolysis Rate” value in series [1] (Table 5) is 0.10 FU/hr. In addition, the “hK2 Hydrolysis Rate” value with hK2 (Table 5) was determined as 2325.8 FU/hr/m.
For the substance “SEQ ID NO: 119: hK2 substrate peptide, single letter sequence P6-P′1, dR at P2 (GGKA[dR]RL; listed as Homo sapiens)”, the “Serum Hydrolysis Rate” value in series [1] (Table 5) is 0.06 FU/hr. For the same substance, the “hK2 Hydrolysis Rate” value in the series with hK2 (Table 5) turned out to be 494.4 FU/hr/m.
For the substance “SEQ ID NO: 115: hK2 substrate peptide, single letter sequence P6-P′1 (GGKANRL; listed as Homo sapiens)”, the “Serum Hydrolysis Rate” value in series [1] (Table 5) stood at 0.01 FU/hr. Moreover, the “hK2 Hydrolysis Rate” value with hK2 (Table 5) is 1113.9 FU/hr/m.
For “SEQ ID NO: 95: hK2 substrate peptide, single letter sequence P7-P′1 (GHEAKRRL; listed as Homo sapiens)”, in that order: “UD (The entries “U.D.” were for measurements of less than 0.01 FU/hour)” and 3324.1 FU/hr/m.
“SEQ ID NO: 104: hK2 substrate peptide, single letter sequence P6-P′1 (GGKAQRL; listed as Homo sapiens)”: the “Serum Hydrolysis Rate” value in series [1] (Table 5) is 0.04 FU/hr. For the same substance, the “hK2 Hydrolysis Rate” value with hK2 (Table 5) is 2233.7 FU/hr/m.
On the same counts, the results for “SEQ ID NO: 106: hK2 substrate peptide, single letter sequence P6-P′1 (GGKQRRL; listed as Homo sapiens)” are 0.02 FU/hr and 2171.2 FU/hr/m.
Consider “SEQ ID NO: 97: hK2 substrate peptide, single letter sequence P7-P′1 (GHEQKRRA; listed as Homo sapiens)”, for which the “Serum Hydrolysis Rate” value in series [1] (Table 5) is 0.06 FU/hr. Moreover, in the series with hK2 (Table 5), the “hK2 Hydrolysis Rate” value is recorded as 3051.5 FU/hr/m.
In the case of “SEQ ID NO: 94: hK2 substrate peptide, single letter sequence P6-P′1 (GGKSRRL; listed as Homo sapiens)”, the “Serum Hydrolysis Rate” value in series [1] (Table 5) is 0.03 FU/hr. For the same substance, in the series with hK2 (Table 5), the “hK2 Hydrolysis Rate” value is reported as 3439.7 FU/hr/m.
Regarding “SEQ ID NO: 110: hK2 substrate peptide, single letter sequence P7-P′1, dL at P′1 (GHEQKRR[dL]; listed as Homo sapiens)”, in series [1] (Table 5), the “Serum Hydrolysis Rate” value is reported as 0.15 FU/hr. In addition, the “hK2 Hydrolysis Rate” value with hK2 (Table 5) was 1690.9 FU/hr/m.
For “SEQ ID NO: 91: hK2 substrate peptide, single letter sequence P7-P′1 (GSYPSSHL; listed as Homo sapiens)”, the “Serum Hydrolysis Rate” value in series [1] (Table 4) is given as “UD (The entries “U.D.” were for measurements of less than 0.01 FU/hour)”. Further, the “hK2 Hydrolysis Rate” value in the series with hK2 (Table 4) turned out to be 24.68 FU/hr/m.
Consider “SEQ ID NO: 107: hK2 substrate peptide, single letter sequence P6-P′1 (GGKHRRL; listed as Homo sapiens)”, for which the “Serum Hydrolysis Rate” value in series [1] (Table 5) is “UD (The entries “U.D.” were for measurements of less than 0.01 FU/hour)”. For the same substance, the “hK2 Hydrolysis Rate” value in the series with hK2 (Table 5) is 2079.2 FU/hr/m.
For “SEQ ID NO: 114: hK2 substrate peptide, single letter sequence P6-P′1 (GGKAHRL; listed as Homo sapiens)”, in that order: 0.10 FU/hr and 1287.4 FU/hr/m.
“SEQ ID NO: 73: hK2 substrate peptide, single letter sequence P7-P′1 (GSQNQRRL; listed as Homo sapiens)”: the “Serum Hydrolysis Rate” value in series [1] (Table 4) is recorded as 0.05 FU/hr. In addition, in the series with hK2 (Table 4), the “hK2 Hydrolysis Rate” value worked out at 2100.48 FU/hr/m.
With “SEQ ID NO: 82: hK2 substrate peptide, single letter sequence P7-P′1 (GSQNQVRL; listed as Homo sapiens)”, in series [1] (Table 4), the “Serum Hydrolysis Rate” value came to 0.03 FU/hr. The “hK2 Hydrolysis Rate” value with hK2 (Table 4) turned out to be 193.55 FU/hr/m.
On to “SEQ ID NO: 121: hK2 substrate peptide, single letter sequence P6-P′1 (GGKAHKL; listed as Homo sapiens)”, for which, in series [1] (Table 5), the “Serum Hydrolysis Rate” value is “UD (The entries “U.D.” were for measurements of less than 0.01 FU/hour)”. The “hK2 Hydrolysis Rate” value in the series with hK2 (Table 5) came out at 73.2 FU/hr/m.
As to “SEQ ID NO: 89: hK2 substrate peptide, single letter sequence P7-P′1 (GHEQKGHL; listed as Homo sapiens)”, the “Serum Hydrolysis Rate” value in series [1] (Table 4) is reported as “UD (The entries “U.D.” were for measurements of less than 0.01 FU/hour)”. Besides, the “hK2 Hydrolysis Rate” value with hK2 (Table 4) is given as 1.30 FU/hr/m.
“SEQ ID NO: 98: hK2 substrate peptide, single letter sequence P6-P′1 (GGAKRRL; listed as Homo sapiens)”: the “Serum Hydrolysis Rate” value in series [1] (Table 5) is 0.02 FU/hr. Moreover, the “hK2 Hydrolysis Rate” value with hK2 (Table 5) was determined as 2773.0 FU/hr/m.
With “SEQ ID NO: 72: hK2 substrate peptide, single letter sequence P7-P′1 (GKDVSRRL; listed as Homo sapiens)”, the “Serum Hydrolysis Rate” value in series [1] (Table 4) is given as 0.08 FU/hr. Also, the “hK2 Hydrolysis Rate” value in the series with hK2 (Table 4) turned out to be 2316.12 FU/hr/m.
“SEQ ID NO: 80: hK2 substrate peptide, single letter sequence P7-P′1 (GSNTEKRL; listed as Homo sapiens)”: the “Serum Hydrolysis Rate” value in series [1] (Table 4) came out at 0.13 FU/hr. In addition, the “hK2 Hydrolysis Rate” value with hK2 (Table 4) is 255.90 FU/hr/m.
“SEQ ID NO: 74: hK2 substrate peptide, single letter sequence P7-P′1 (GSYPSRRL; listed as Homo sapiens)”: the “Serum Hydrolysis Rate” value in series [1] (Table 4) came out at 0.09 FU/hr. The “hK2 Hydrolysis Rate” value with hK2 (Table 4) was found to be 2060.21 FU/hr/m.
